Experimental data: the RNAGym collection of RNA variant scans (doi:10.7554/elife.90254)

B1: OR4K15 (parent)
chain: GUUAACGGUCAUAGGCCAUGGAAACUAGGAGCACCAUUUCGCUGCCAGUGAAGAAAUGAACAAAGAAAAUCUGGGCCAGGCAGGCAUCAAAAGAAAUAGUCUUGCGCUCAACCAGAAAGUCUGUAAUCAUUUUAAGGGUA

Variants of: B1
Assay: self-cleavage, relative activity (ratio to wild type); higher = more cleavage; in vitro, sequencing; the parent is a self-cleaving ribozyme

Compared with GUUAACGGUCAUAGGCCAUGGAAACUAGGAGCACCAUUUCGCUGCCAGUGAAGAGAUGAACAAAGAAAAUCUGGGCCGGGCAGGCAUCAAAAGAAAUAGUCUUGCGCUCAACCAGAAAGUCUGUAAUCAUUUUAAGGGUA [A55G A78G], GUUAACGGUCAUAGGCCAUGGAAACUAGGAGCACCAUUUCGCUGCCAGUGAAGACAUGAACAAAGAAAAUCUGGGCCAGGCAGGCAUCAAAAGAAAUAGUCUUGCGCUCAACCAGAAAGUCUGCAAUCAUUUUAAGGGUA [A55C U124C] is higher in self-cleavage: 0.23 for the first, 0.95 for the second.

Compared with GUUAACGGUCAUAGGCCAUGGAAACUAGGAGCACCAUUUCGCUGCCAGUGAAGUAAUGAACAAAGAAAAUCUGGGCCAGGCAGGCAUCAAAGGAAAUAGUCUUGCGCUCAACCAGAAAGUCUGUAAUCAUUUUAAGGGUA [A54U A92G], GUUAACGGUCAUAGGCCAUGGAAACUAGGAGCACCAUUUCGCUGCCAGUGAAGACAUGAACAAAGAAAAUCUGGGCCAGGCAGGCAUCAAAAGAAAUAGUCCUGCGCUCAACCAGAAAGUCUGUAAUCAUUUUAAGGGUA [A55C U102C] is lower in self-cleavage: 1.54 for the first, 1.41 for the second.

Going from GUUAACGGUCAUAGGCCAUGGAAACUAGGAGCACCAUUUCGCUGCCAGUGAAGACAUGAACAAAGAAAAUCUGGGCCAGGCAGGCACCAAAAGAAAUAGUCUUGCGCUCAACCAGAAAGUCUGUAAUCAUUUUAAGGGUA [A55C U87C] to GUUAACGGUCAUAGGCCAUGGAAACUAGGAGCACCAUUUCGCUGCCAGUGAAGUAAUGAACAAAGAAAAUCUGGGCCAGGCAGGCAUCAAAAGAAAUAGUCUUGCGCUCAACCAGAAAGUCUGUAAUCAUUCUAAGGGUA [A54U U132C], the self-cleavage rises from 0.47 to 2.02.

First: GUUAACGGUCAUAGGCCAUGGAAACUAGGAGCACCAUUUCGCUGCCAGUGAAGUAAUGAACAAAGAAAAUCUGGGCCAGGCAGGCAUCAAAAGAAAUAGUCUUGCGCUCAACCGGAAAGUCUGUAAUCAUUUUAAGGGUA [A54U A114G]
Second: GUUAACGGUCAUAGGCCAUGGAAACUAGGAGCACCAUUUCGCUGCCAGUGAAGAGAUGAACAAAGAACAUCUGGGCCAGGCAGGCAUCAAAAGAAAUAGUCUUGCGCUCAACCAGAAAGUCUGUAAUCAUUUUAAGGGUA [A55G A68C]
The self-cleavage of the first is lower: 0.14 for the first, 2.11 for the second.

First: GUUAACGGUCAUAGGCCAUGGAAACUAGGAGCACCAUUUCGCUGCCAGUGAAGAGAUGAACAAAGAAUAUCUGGGCCAGGCAGGCAUCAAAAGAAAUAGUCUUGCGCUCAACCAGAAAGUCUGUAAUCAUUUUAAGGGUA [A55G A68U]
Second: GUUAACGGUCAUAGGCCAUGGAAACUAGGAGCACCAUUUCGCUGCCAGUGAAGAGAUGAACAAAGAAGAUCUGGGCCAGGCAGGCAUCAAAAGAAAUAGUCUUGCGCUCAACCAGAAAGUCUGUAAUCAUUUUAAGGGUA [A55G A68G]
The self-cleavage of the first is lower: 1.2 for the first, 1.23 for the second.

First: GUUAACGGUCAUAGGCCAUGGAAACUAGGAGCACCAUUUCGCUGCCAGUGAAGUAAUGAACAAAGAAAAUCUGGGCCAGGCAGGCAUCAAAAGAAAUAGUCUUGCGCUCAACCAGAAAGUCUGUAAUCAUUUAAAGGGUA [A54U U133A]
Second: GUUAACGGUCAUAGGCCAUGGAAACUAGGAGCACCAUUUCGCUGCCAGUGAAGUAAUGAACAAAGAAAAUCUGGGCCAGGCAGGCAUCAAAAGAAAUAGUCUUGCGCUCAACCAGAAAGUCUGUAAUCAUUUCAAGGGUA [A54U U133C]
The self-cleavage of the first is lower: 1.49 for the first, 2.23 for the second.

First: GUUAACGGUCAUAGGCCAUGGAAACUAGGAGCACCAUUUCGCUGCCAGUGAAGUAAUGAACAAAGAAAAUCUGGGCCAGGCAGGCAUCAAAAGAAAUAGUCUUGCGCUCAACCAGAAAGCCUGUAAUCAUUUUAAGGGUA [A54U U120C]
Second: GUUAACGGUCAUAGGCCAUGGAAACUAGGAGCACCAUUUCGCUGCCAGUGAAGAGAUGAACAAAGUAAAUCUGGGCCAGGCAGGCAUCAAAAGAAAUAGUCUUGCGCUCAACCAGAAAGUCUGUAAUCAUUUUAAGGGUA [A55G A66U]
The self-cleavage of the first is lower: 0.32 for the first, 0.64 for the second.

Compared with GUUAACGGUCAUAGGCCAUGGAAACUAGGAGCACCAUUUCGCUGCCAGUGAAGUAAUGAACAAAGAAAAUCUGGGCCAGGCAGGCAUCAAAAGAAGUAGUCUUGCGCUCAACCAGAAAGUCUGUAAUCAUUUUAAGGGUA [A54U A96G], GUUAACGGUCAUAGGCCAUGGAAACUAGGAGCACCAUUUCGCUGCCAGUGAAGAGAUGAGCAAAGAAAAUCUGGGCCAGGCAGGCAUCAAAAGAAAUAGUCUUGCGCUCAACCAGAAAGUCUGUAAUCAUUUUAAGGGUA [A55G A60G] is lower in self-cleavage: 1.68 for the first, 1 for the second.

First: GUUAACGGUCAUAGGCCAUGGAAACUAGGAGCACCAUUUCGCUGCCAGUGAAGAGAUGAUCAAAGAAAAUCUGGGCCAGGCAGGCAUCAAAAGAAAUAGUCUUGCGCUCAACCAGAAAGUCUGUAAUCAUUUUAAGGGUA [A55G A60U]
Second: GUUAACGGUCAUAGGCCAUGGAAACUAGGAGCACCAUUUCGCUGCCAGUGAAGACAUGGACAAAGAAAAUCUGGGCCAGGCAGGCAUCAAAAGAAAUAGUCUUGCGCUCAACCAGAAAGUCUGUAAUCAUUUUAAGGGUA [A55C A59G]
The self-cleavage of the first is higher: 1.62 for the first, 0.36 for the second.

First: GUUAACGGUCAUAGGCCAUGGAAACUAGGAGCACCAUUUCGCUGCCAGUGAAGAGAUGGACAAAGAAAAUCUGGGCCAGGCAGGCAUCAAAAGAAAUAGUCUUGCGCUCAACCAGAAAGUCUGUAAUCAUUUUAAGGGUA [A55G A59G]
Second: GUUAACGGUCAUAGGCCAUGGAAACUAGGAGCACCAUUUCGCUGCCAGUGAAGAGAUGAACAGAGAAAAUCUGGGCCAGGCAGGCAUCAAAAGAAAUAGUCUUGCGCUCAACCAGAAAGUCUGUAAUCAUUUUAAGGGUA [A55G A63G]
The self-cleavage of the first is lower: 1.17 for the first, 1.43 for the second.

Going from GUUAACGGUCAUAGGCCAUGGAAACUAGGAGCACCAUUUCGCUGCCAGUGAAGAGAUGAACAUAGAAAAUCUGGGCCAGGCAGGCAUCAAAAGAAAUAGUCUUGCGCUCAACCAGAAAGUCUGUAAUCAUUUUAAGGGUA [A55G A63U] to GUUAACGGUCAUAGGCCAUGGAAACUAGGAGCACCAUUUCGCUGCCAGUGAAGUAAUGAACAAAGAAAAUCUGGGCCAGGCAGGCAUCAAAAGAGAUAGUCUUGCGCUCAACCAGAAAGUCUGUAAUCAUUUUAAGGGUA [A54U A95G], the self-cleavage rises from 1.1 to 2.47.

Going from GUUAACGGUCAUAGGCCAUGGAAACUAGGAGCACCAUUUCGCUGCCAGUGAAGUAAUGAACAAAGAAAAUCUGGGCCAGGCAGGCAUCAAAAGAAAUAGCCUUGCGCUCAACCAGAAAGUCUGUAAUCAUUUUAAGGGUA [A54U U100C] to GUUAACGGUCAUAGGCCAUGGAAACUAGGAGCACCAUUUCGCUGCCAGUGAAGUAAUGAACAAAGAAAAUCCGGGCCAGGCAGGCAUCAAAAGAAAUAGUCUUGCGCUCAACCAGAAAGUCUGUAAUCAUUUUAAGGGUA [A54U U72C], the self-cleavage falls from 1.43 to 0.09.

First: GUUAACGGUCAUAGGCCAUGGAAACUAGGAGCACCAUUUCGCUGCCAGUGAAGUAAUGAACAAAGAAAAUCUGGGCCAGGCAGGCAUCAAAAGAAAUAGUCUUGCGCUCAACCAGAAAGUCUGUAAUCGUUUUAAGGGUA [A54U A129G]
Second: GUUAACGGUCAUAGGCCAUGGAAACUAGGAGCACCAUUUCGCUGCCAGUGAAGUAAUGAACAAAGAAAAUCUGGGCCAGGCAGGCAUCAAAAGAAAUAGUCUUGCGCUUAACCAGAAAGUCUGUAAUCAUUUUAAGGGUA [A54U C109U]
The self-cleavage of the first is higher: 0.88 for the first, 0.39 for the second.

First: GUUAACGGUCAUAGGCCAUGGAAACUAGGAGCACCAUUUCGCUGCCAGUGAAGAGAUGAACGAAGAAAAUCUGGGCCAGGCAGGCAUCAAAAGAAAUAGUCUUGCGCUCAACCAGAAAGUCUGUAAUCAUUUUAAGGGUA [A55G A62G]
Second: GUUAACGGUCAUAGGCCAUGGAAACUAGGAGCACCAUUUCGCUGCCAGUGAAGAGAUGAACAAAGAUAAUCUGGGCCAGGCAGGCAUCAAAAGAAAUAGUCUUGCGCUCAACCAGAAAGUCUGUAAUCAUUUUAAGGGUA [A55G A67U]
The self-cleavage of the first is lower: 0.75 for the first, 1.53 for the second.

Going from GUUAACGGUCAUAGGCCAUGGAAACUAGGAGCACCAUUUCGCUGCCAGUGAAGAGAUGAACAAAGAGAAUCUGGGCCAGGCAGGCAUCAAAAGAAAUAGUCUUGCGCUCAACCAGAAAGUCUGUAAUCAUUUUAAGGGUA [A55G A67G] to GUUAACGGUCAUAGGCCAUGGAAACUAGGAGCACCAUUUCGCUGCCAGUGAAGUAAUGAACAAAGAAAAUCUGGGCCAGGCAGGCAUCAAAAGAAAUAGUCUUGCGCUCAACCAGAAAGUCUGUAAUCACUUUAAGGGUA [A54U U130C], the self-cleavage rises from 1.21 to 1.62.

Going from GUUAACGGUCAUAGGCCAUGGAAACUAGGAGCACCAUUUCGCUGCCAGUGAAGACAUGAACAAAGAAAAUCUGGGCCAGGCGGGCAUCAAAAGAAAUAGUCUUGCGCUCAACCAGAAAGUCUGUAAUCAUUUUAAGGGUA [A55C A82G] to GUUAACGGUCAUAGGCCAUGGAAACUAGGAGCACCAUUUCGCUGCCAGUGAAGAGGUGAACAAAGAAAAUCUGGGCCAGGCAGGCAUCAAAAGAAAUAGUCUUGCGCUCAACCAGAAAGUCUGUAAUCAUUUUAAGGGUA [A55G A56G], the self-cleavage rises from 0.53 to 1.31.

Going from GUUAACGGUCAUAGGCCAUGGAAACUAGGAGCACCAUUUCGCUGCCAGUGAAGUAAUGAACAAAGAAAAUCUGGGCCAGGCAGGCAUCAAAAGAAAUAGUCUUGCGCUCAACCAGAAAGUCUGAAAUCAUUUUAAGGGUA [A54U U124A] to GUUAACGGUCAUAGGCCAUGGAAACUAGGAGCACCAUUUCGCUGCCAGUGAAGUAAUGAACAAAGAAAAUCUGGGCCAGGCAGGCAUCAAAAGAAAUAGUCUUGCGCUCAACCAGAAAGUCUGUAGUCAUUUUAAGGGUA [A54U A126G], the self-cleavage rises from 0.86 to 1.6.

First: GUUAACGGUCAUAGGCCAUGGAAACUAGGAGCACCAUUUCGCUGCCAGUGAAGUAAUGAACAAAGAAAAUCUGGGCCAGGCAGGCAUCAAAAGGAAUAGUCUUGCGCUCAACCAGAAAGUCUGUAAUCAUUUUAAGGGUA [A54U A94G]
Second: GUUAACGGUCAUAGGCCAUGGAAACUAGGAGCACCAUUUCGCUGCCAGUGAAGUAAUGAACAAAGAAAAUCUGGGCCAGGCAGGCAUCAAAAGAAAUAGUCUUGCGCUCAACCAGAGAGUCUGUAAUCAUUUUAAGGGUA [A54U A117G]
The self-cleavage of the first is higher: 1.64 for the first, 1.63 for the second.

Going from GUUAACGGUCAUAGGCCAUGGAAACUAGGAGCACCAUUUCGCUGCCAGUGAAGUAAUGAACAAAGAAAAUCUGGGCCAGGCAGGCAUCAAAAGAAAUAGUCUUGCGCUCAACCAGUAAGUCUGUAAUCAUUUUAAGGGUA [A54U A116U] to GUUAACGGUCAUAGGCCAUGGAAACUAGGAGCACCAUUUCGCUGCCAGUGAAGUAAUGAACAAAGAAAAUCUGGGCCAGGCAGGCAUCAAAAGAAAUAGUCUUGCGCUCAACCAGAAGGUCUGUAAUCAUUUUAAGGGUA [A54U A118G], the self-cleavage rises from 0.42 to 0.95.

Compared with GUUAACGGUCAUAGGCCAUGGAAACUAGGAGCACCAUUUCGCUGCCAGUGAAGACAUGAACAAAGAAAAUCCGGGCCAGGCAGGCAUCAAAAGAAAUAGUCUUGCGCUCAACCAGAAAGUCUGUAAUCAUUUUAAGGGUA [A55C U72C], GUUAACGGUCAUAGGCCAUGGAAACUAGGAGCACCAUUUCGCUGCCAGUGAAGUAAUGAACAAAGAAAAUCUGGGCCAGGCAGGCAUCAAAAGAAAUAGUCUUGCGCUCAACCAGAAAGUCAGUAAUCAUUUUAAGGGUA [A54U U122A] is higher in self-cleavage: 0.24 for the first, 1.45 for the second.

GUUAACGGUCAUAGGCCAUGGAAACUAGGAGCACCAUUUCGCUGCCAGUGAAGUAAUGAACAAAGAAAAUCUGGGCCAGGCAGGCAUCAAAAGAAAUAGUCUUGCGCUCAACCAGAAAGUCCGUAAUCAUUUUAAGGGUA [A54U U122C] showed a self-cleavage of 1.27.
